Measurements: publication PMC2786213

Columns and labels:
[1] = FRET or BRET
[2] = biological target: discoidin domain receptor 1 (DDR1), mouse DDR1a, tagged with cyan or yellow fluorescent protein (mouse); test: FRET or BRET

Chain of discoidin domain receptor 1 (DDR1), mouse DDR1a, tagged with cyan or yellow fluorescent protein (Q03146 20-911): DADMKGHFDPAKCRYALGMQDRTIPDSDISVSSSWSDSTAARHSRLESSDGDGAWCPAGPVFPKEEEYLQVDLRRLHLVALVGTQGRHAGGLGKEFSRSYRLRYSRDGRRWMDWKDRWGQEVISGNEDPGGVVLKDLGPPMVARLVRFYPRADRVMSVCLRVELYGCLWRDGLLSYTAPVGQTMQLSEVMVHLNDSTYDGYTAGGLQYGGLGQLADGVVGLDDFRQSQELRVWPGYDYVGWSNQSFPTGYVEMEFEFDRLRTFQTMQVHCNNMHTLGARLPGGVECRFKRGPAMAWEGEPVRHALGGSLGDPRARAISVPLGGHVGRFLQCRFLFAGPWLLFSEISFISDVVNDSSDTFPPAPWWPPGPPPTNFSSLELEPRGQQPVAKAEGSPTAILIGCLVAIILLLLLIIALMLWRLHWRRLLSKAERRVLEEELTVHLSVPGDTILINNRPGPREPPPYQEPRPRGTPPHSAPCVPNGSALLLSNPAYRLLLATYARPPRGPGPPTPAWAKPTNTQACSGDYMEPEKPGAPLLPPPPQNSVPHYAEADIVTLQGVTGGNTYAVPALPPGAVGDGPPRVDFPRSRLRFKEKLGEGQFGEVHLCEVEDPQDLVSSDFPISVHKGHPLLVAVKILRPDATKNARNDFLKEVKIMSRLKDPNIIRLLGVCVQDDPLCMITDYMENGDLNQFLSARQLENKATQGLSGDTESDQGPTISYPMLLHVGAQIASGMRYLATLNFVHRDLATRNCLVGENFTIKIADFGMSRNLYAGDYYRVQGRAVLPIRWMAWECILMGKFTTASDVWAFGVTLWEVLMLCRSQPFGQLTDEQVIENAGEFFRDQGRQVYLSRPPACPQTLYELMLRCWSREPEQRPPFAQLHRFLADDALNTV

Substance: discoidin domain receptor 1 (DDR1), mouse DDR1a, tagged with cyan or yellow fluorescent protein
- FRET index FC/A (collagen 5 min, aggregated ROI) [1]: 14.6
- FRET index FC/A (collagen 30 min, aggregated ROI) [1]: 15.2
- FRET index FC/A (collagen 60 min, aggregated ROI) [1]: 13.8
- FRET index FC/A (collagen 60 min, nonaggregated ROI) [1]: 5.2
- FRET index FC/A (0 min, no collagen) [2]: 5.1
